± gives the standard deviation of the averaged measurements.
The sequences below were run on ATP (assay: switch fluorescence ratio, 500 uM ATP over buffer (Cy3 cluster intensity, sum of 5 cycles each) (fold (ratio)); higher = stronger signal-on switching upon ATP binding; sequences stand for … in TCGTCGGCAGCGTCAGATGTGTATAAGAGACAGTTTTTTTTTTTTTTTTTTTTTTTTT…TC). Conditions: aptamer strand: ATP DNA aptamer (quencher-CACCTGGGGGAGTATTGCGGAGGAAGG + anchor), 100 nM annealed; ATP concentration: 500 uM.
Procedure, shortened: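 Five buffer/ATP imaging cycles were run on Cy3-labelled switching-strand clusters on a modified Illumina MiSeq flow-cell, with NaOH stripping and re-annealing between cycles. In each cycle, clusters annealed to 100 nM quencher-labelled ATP aptamer were imaged in selection buffer, then after 15 min with 500 uM ATP at 22 °C. Per cluster, the fluorescence ratio is summed target-cycle over summed buffer-cycle Cy3 intensity, averaged per switch-domain sequence. Only clusters within 100-1000 RFU were kept.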
GATTGGTTGC gave a switch fluorescence ratio of 0.9941 ± 0.0019.
TAAAAAATAG was tested, and the switch fluorescence ratio was 1.043 ± 0.0086.
Sequence ACTACACTTT has a switch fluorescence ratio of 1.27 ± 0.018.
GGGCTTCTTT gave a switch fluorescence ratio of 0.996 ± 0.034.
Sequence TTAAACGGAC has a switch fluorescence ratio of 1.36 ± 0.021.
CTGGGACAGT gave a switch fluorescence ratio of 0.995 ± 0.034.
Work on TATAGGCGCT yielded a switch fluorescence ratio of 0.994 ± 0.035.
Work on TGGGTCAAAT yielded a switch fluorescence ratio of 1.02 ± 0.027.
GATGCAGGCC was tested, and the switch fluorescence ratio was 0.892 ± 0.017.
In the case of CCTTGCGTTC, the switch fluorescence ratio is reported as 2.68 ± 0.19.
With GATTGGGGTT the switch fluorescence ratio was 0.978 ± 0.036.
With CTTGTTAGGG the switch fluorescence ratio was 0.996 ± 0.032.
With TTATTTGGAT the switch fluorescence ratio was 0.9897 ± 0.005.
TGTTCAGACG showed a switch fluorescence ratio of 1.03 ± 0.053.
GGTCAATGTG showed a switch fluorescence ratio of 0.987 ± 0.033.
GGATGTTGTG gave a switch fluorescence ratio of 0.974 ± 0.04.
Sequence TGCTTTGCCG has a switch fluorescence ratio of 1.09 ± 0.072.
Work on TTGCGGGTGA yielded a switch fluorescence ratio of 1.01 ± 0.059.
TAATTAGGAA gave a switch fluorescence ratio of 1.02 ± 0.03.
Work on GGTAACCTTT yielded a switch fluorescence ratio of 1.43 ± 0.58.
Sequence ACGATAGGCC has a switch fluorescence ratio of 1.03 ± 0.028.
In the case of AACCACTCAT, the switch fluorescence ratio is reported as 1.02 ± 0.053.
Work on TTTACCCCAT yielded a switch fluorescence ratio of 1.05 ± 0.032.
AGTTTGATAT gave a switch fluorescence ratio of 0.999 ± 0.017.
Work on GATTAATGGG yielded a switch fluorescence ratio of 0.995 ± 0.023.
With ATTCTTGTTC the switch fluorescence ratio was 0.981 ± 0.05.
CCTTTCGACA showed a switch fluorescence ratio of 2.08 ± 0.26.
TTGAACGGGT showed a switch fluorescence ratio of 1.07 ± 0.1.
AAAAATTAAT gave a switch fluorescence ratio of 0.979 ± 0.023.
CATTTGAATT showed a switch fluorescence ratio of 0.973 ± 0.033.
AGTTAATAAA was tested, and the switch fluorescence ratio was 1 ± 0.0019.
Work on GGGTGGGGTA yielded a switch fluorescence ratio of 0.971 ± 0.036.
TACTCAGAGG gave a switch fluorescence ratio of 1.04 ± 0.021.
TTAGCGTATG was tested, and the switch fluorescence ratio was 1.01 ± 0.031.
For GACGGTCACT, the switch fluorescence ratio was 1.21 ± 0.013.
Work on TATTTTTTGG yielded a switch fluorescence ratio of 1.02 ± 0.033.
ACTGTTTTCC showed a switch fluorescence ratio of 1.066 ± 0.0042.
GGCCAAGGGT gave a switch fluorescence ratio of 1.03 ± 0.0039.
GACCTTTGTT gave a switch fluorescence ratio of 1.01 ± 0.022.
ACGGAGGTGG was tested, and the switch fluorescence ratio was 0.992 ± 0.033.
With CCATGTGTGT the switch fluorescence ratio was 1.0078 ± 7.5e-05.
TATGAGGTAA showed a switch fluorescence ratio of 1.02 ± 0.028.
In the case of AGGTGCTTAC, the switch fluorescence ratio is reported as 1.04 ± 0.037.
For AAAGGATAAG, the switch fluorescence ratio was 0.993 ± 0.038.
Work on AGGTATTGG yielded a switch fluorescence ratio of 1.008 ± 0.0055.
Sequence CCTTGTTTGG has a switch fluorescence ratio of 1.01 ± 0.011.
CGTGAGCTAG showed a switch fluorescence ratio of 1.03 ± 0.029.
Work on GATATTCTTT yielded a switch fluorescence ratio of 0.988 ± 0.018.
ATTTTAATTG was tested, and the switch fluorescence ratio was 1.02 ± 0.016.
Work on ACCCGAAGGG yielded a switch fluorescence ratio of 0.948 ± 0.075.
In the case of AAAATGGGCA, the switch fluorescence ratio is reported as 1.02 ± 0.024.
With CATTTAACGT the switch fluorescence ratio was 0.991 ± 0.0041.
With TTACATATGA the switch fluorescence ratio was 1.04 ± 0.016.
For TGCTACGTTT, the switch fluorescence ratio was 0.991 ± 0.02.
Sequence TCAAGAGCTG has a switch fluorescence ratio of 1.08 ± 0.072.
In the case of GGGAAATATG, the switch fluorescence ratio is reported as 1.01 ± 0.012.
Sequence GAGGGTAGTC has a switch fluorescence ratio of 1.004 ± 0.007.
In the case of TGTGTTATTT, the switch fluorescence ratio is reported as 0.999 ± 0.024.
With GGGATATCTG the switch fluorescence ratio was 0.98847 ± 0.00072.
With CTGGGAACGA the switch fluorescence ratio was 0.998 ± 0.035.
For GCTTGTTAAA, the switch fluorescence ratio was 0.994 ± 0.037.
TCACTAGATC showed a switch fluorescence ratio of 0.998 ± 0.021.
In the case of GTGAGGGGGA, the switch fluorescence ratio is reported as 1 ± 0.033.
With CTCCACGGGA the switch fluorescence ratio was 1.144 ± 0.011.
Sequence GGTTTATCGT has a switch fluorescence ratio of 0.974 ± 0.022.
AGGCCTGGG showed a switch fluorescence ratio of 1 ± 0.016.
In the case of CTAATTTACA, the switch fluorescence ratio is reported as 1.081 ± 0.0097.
With GGAGGCAGGG the switch fluorescence ratio was 0.9965 ± 0.0096.
GAAGCGGGGC gave a switch fluorescence ratio of 1.36 ± 0.064.
Work on TCTAGTAAAT yielded a switch fluorescence ratio of 1.01 ± 0.015.
GGTAGAATTA showed a switch fluorescence ratio of 0.979 ± 0.032.
TTTTGTGGCG was tested, and the switch fluorescence ratio was 1.04 ± 0.033.
ATTGAATTTT was tested, and the switch fluorescence ratio was 0.9795 ± 0.0038.
With GCGGTAGGTT the switch fluorescence ratio was 1.01 ± 0.013.
In the case of TTATCAGGGG, the switch fluorescence ratio is reported as 1.08 ± 0.12.
For ATAGGAGTTG, the switch fluorescence ratio was 1.033 ± 0.0089.
For GGTGCTGAAG, the switch fluorescence ratio was 1.01 ± 0.021.
For TAAGCGATCT, the switch fluorescence ratio was 1.0192 ± 0.00013.
With CGTTGTTGGT the switch fluorescence ratio was 1.015 ± 0.009.
Work on GCTGGAGGGT yielded a switch fluorescence ratio of 0.997 ± 0.019.
For AGTCCGGACC, the switch fluorescence ratio was 0.967 ± 0.026.
TTGAGGATTG gave a switch fluorescence ratio of 1 ± 0.018.
TTAAAGGCGT showed a switch fluorescence ratio of 0.982 ± 0.021.
GGAGCCGGGG was tested, and the switch fluorescence ratio was 1 ± 0.022.
Work on GGGTAGGTGC yielded a switch fluorescence ratio of 1.13 ± 0.044.
For GGGTTTAATT, the switch fluorescence ratio was 0.999 ± 0.011.
CGGTAACTGG showed a switch fluorescence ratio of 1.01 ± 0.048.
For CTAATATTAA, the switch fluorescence ratio was 0.999 ± 0.018.
With ATAGGGGAGT the switch fluorescence ratio was 0.993 ± 0.03.
In the case of AGGAGTTTAG, the switch fluorescence ratio is reported as 0.9867 ± 0.0093.
TTTAGAAGGG was tested, and the switch fluorescence ratio was 0.979 ± 0.051.
Sequence CCCCCGGGGT has a switch fluorescence ratio of 1.83 ± 0.38.
CTGGCATTAT gave a switch fluorescence ratio of 1.21 ± 0.038.
For TTCGAGGTGC, the switch fluorescence ratio was 1.04 ± 0.05.
Work on CCGGACACGA yielded a switch fluorescence ratio of 1.39 ± 0.042.
Sequence GATTGCGAGG has a switch fluorescence ratio of 0.9887 ± 0.0059.
ATGGGGGTTG gave a switch fluorescence ratio of 0.999 ± 0.018.
TGGGGGAGCT was tested, and the switch fluorescence ratio was 1.05 ± 0.11.
With CGATGGCGTT the switch fluorescence ratio was 0.96 ± 0.016.
GAGGTCGCGC was tested, and the switch fluorescence ratio was 1.01 ± 0.043.
For CATATTCGCT, the switch fluorescence ratio was 1.01 ± 0.016.
For GCCCATGGGT, the switch fluorescence ratio was 1.07 ± 0.12.
In the case of ATGTAATTAA, the switch fluorescence ratio is reported as 0.964 ± 0.046.
Work on CATATATGTC yielded a switch fluorescence ratio of 1 ± 0.056.
Work on TACTTGGGC yielded a switch fluorescence ratio of 1.02 ± 0.021.
TATCGTCTAC showed a switch fluorescence ratio of 1.015 ± 0.0033.
Work on GTTGAGAGGA yielded a switch fluorescence ratio of 0.9636 ± 0.0018.
For ACTAATTAGC, the switch fluorescence ratio was 1.01 ± 0.031.
For AGGTGAAAAG, the switch fluorescence ratio was 1.01 ± 0.02.
For GGTTCGAGAG, the switch fluorescence ratio was 0.964 ± 0.012.
AACAGAGTTT was tested, and the switch fluorescence ratio was 1.02 ± 0.026.
CTGGCTTTGG was tested, and the switch fluorescence ratio was 1.05 ± 0.043.
AGATCCCGCG showed a switch fluorescence ratio of 1.03 ± 0.032.
GGCTCAGTTT was tested, and the switch fluorescence ratio was 0.979 ± 0.026.
With AAGGGGCGAT the switch fluorescence ratio was 0.98751 ± 0.00098.
Sequence TTTGAAATAT has a switch fluorescence ratio of 1.01 ± 0.013.
In the case of TGAATGGAAT, the switch fluorescence ratio is reported as 1.04 ± 0.047.
TGAACTAGTA gave a switch fluorescence ratio of 0.9828 ± 0.0046.
TCATAATAGC was tested, and the switch fluorescence ratio was 0.977 ± 0.028.
TTCCGTGGGA showed a switch fluorescence ratio of 1.06 ± 0.045.
ATAAACCTTG gave a switch fluorescence ratio of 1.16 ± 0.031.
For CGTTACTACG, the switch fluorescence ratio was 1.06 ± 0.028.
GCATCGGGGG was tested, and the switch fluorescence ratio was 0.981 ± 0.037.
AGGCCTAACG showed a switch fluorescence ratio of 0.995 ± 0.01.
With CAATTGCAGG the switch fluorescence ratio was 1.01 ± 0.014.
TCGGATTGGG was tested, and the switch fluorescence ratio was 0.993 ± 0.033.
Work on GGATTGGGAC yielded a switch fluorescence ratio of 1.024 ± 0.0016.
CGCGAGGGCC showed a switch fluorescence ratio of 1.1 ± 0.08.
Work on TCGAATATCA yielded a switch fluorescence ratio of 1.007 ± 0.0097.
Sequence GGATGCTGTT has a switch fluorescence ratio of 1.02 ± 0.012.
In the case of GCGGAAAGGA, the switch fluorescence ratio is reported as 1 ± 0.038.
For GGCTATCGGG, the switch fluorescence ratio was 1.02 ± 0.046.
In the case of AGTCTGCCGG, the switch fluorescence ratio is reported as 1.01 ± 0.028.
Work on GGATCAGAAG yielded a switch fluorescence ratio of 1.004 ± 0.0056.
TCCGAAAGGG gave a switch fluorescence ratio of 1.052 ± 0.0062.
AGAGGGGGTA showed a switch fluorescence ratio of 0.997 ± 0.022.
TGGGCGGGGT was tested, and the switch fluorescence ratio was 1.02 ± 0.031.
Work on TAGCAGTCGA yielded a switch fluorescence ratio of 1.09 ± 0.058.
With TAGGGTATGT the switch fluorescence ratio was 1.01 ± 0.018.
With AGGGACTAGA the switch fluorescence ratio was 1 ± 0.025.
GAGGTTTCGT gave a switch fluorescence ratio of 0.988 ± 0.02.
ACCGCTGGTC gave a switch fluorescence ratio of 1.13 ± 0.056.
In the case of AGTCAACCGG, the switch fluorescence ratio is reported as 1.03 ± 0.034.
Sequence AGATACGGTG has a switch fluorescence ratio of 0.983 ± 0.044.
AAGGGGAAGT gave a switch fluorescence ratio of 0.987 ± 0.038.
For TTGGATAGCG, the switch fluorescence ratio was 0.982 ± 0.017.
GGTTCGGATC showed a switch fluorescence ratio of 0.99316 ± 0.00058.
Work on TTGAGTGAGC yielded a switch fluorescence ratio of 0.988 ± 0.025.
TTGGTTTGTC was tested, and the switch fluorescence ratio was 0.99 ± 0.037.
With GGTTTTGTAA the switch fluorescence ratio was 0.982 ± 0.018.
With AGAATCGTAT the switch fluorescence ratio was 1.01 ± 0.028.
For GAGGAAACAG, the switch fluorescence ratio was 1.022 ± 0.0067.
For AAGTTACTAG, the switch fluorescence ratio was 1.07 ± 0.014.
In the case of GCTGGAAGCA, the switch fluorescence ratio is reported as 0.986 ± 0.078.
With TTTATGCTGC the switch fluorescence ratio was 1.05 ± 0.038.
In the case of TATTGTCAGA, the switch fluorescence ratio is reported as 1.01 ± 0.019.
Sequence GGGGAAAGAA has a switch fluorescence ratio of 1.02 ± 0.064.

— the supplement of paper PMC10126150
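Note: ATP exposure 15 min at 22 °C before imaging.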
